Measurements as given in patent publication US20250161358A1 (UTC THERAPEUTICS SHANGHAI, published 2025).

T1: CD7-Fc recombinant protein (human, UniProt P09564 26-180)
T1 construct: also called CD7-Fc protein; human CD7-Fc
T1 sequence (looked up): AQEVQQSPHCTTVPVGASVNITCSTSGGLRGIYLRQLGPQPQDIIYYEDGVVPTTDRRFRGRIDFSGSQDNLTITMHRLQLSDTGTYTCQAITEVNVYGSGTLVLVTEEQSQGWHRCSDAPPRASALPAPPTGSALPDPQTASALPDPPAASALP

B1: anti-CD7 scFv-H18 antibody (scFv, V domains shown)
VH: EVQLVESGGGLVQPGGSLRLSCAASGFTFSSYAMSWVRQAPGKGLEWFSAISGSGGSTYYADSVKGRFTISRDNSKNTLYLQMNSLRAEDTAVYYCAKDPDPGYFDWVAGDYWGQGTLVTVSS
VL: QSALTQPPSASGSPGQSVTISCTGTSSDVGGYTYVSWYQQHPGKAPKLMIYEVSKRPSGVPDRFSGSKSGNTASLTVSGLQAEDEADYYCSSYAGSNNVVFGGGTELTVL
notes: Fully human scFv from the phage library
B2: anti-CD7 scFv-H15 antibody (scFv, V domains shown)
VH: EVQLVQSGAEVKKPGASVKVSCKVSGYTLTELSMHWVRQAPGKGLEWMGGFDPEDGETIYAQKFQGRVTMTEDTSTDTAYMELSSLRSEDTAVYYCATERASGSYEYYFDYWGQGTLVTVSS
VL: AIQLTQSPSSVSASVGDRVTITCRASQGISSWLAWYQQKPGKAPKLLIYAASSLQSGVPSRFSGSGSGTDFTLTISSLQPEDFATYYCQQANSFPYTFGQGTKVEIK
notes: as for B1
B3: anti-CD7 scFv-H13 antibody (scFv, V domains shown)
VH: QVQLVQSGAEVKKPGSSVKVSCKASGGTFSSYAISWVRQAPGQGLEWMGGIIPIFGTANYAQKFQGRVTITADESTSTAYMELSSLRSEDTAVYYCARDQGVVPAAEIPYYDFWSGPPFDPWGQGTLVTVSS
VL: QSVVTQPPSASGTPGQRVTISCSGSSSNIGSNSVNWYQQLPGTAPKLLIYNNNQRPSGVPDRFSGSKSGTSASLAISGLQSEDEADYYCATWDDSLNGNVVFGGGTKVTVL
notes: as for B1
B4: anti-CD7 scFv-H5 antibody (scFv, V domains shown)
VH: QVQLVQSGAEVKKPGESLRISCKGSGYSFTSYWISWVRQMPGKGLEWMGRIDPSDSYTNYSPSFQGHVTISADKSISTAYLQWSSLKASDTAMYYCARHPVTNYYYYGMDVWGQGTTVTVSS
VL: DIRLTQSPSTVSASIGDRVTITCRASQGISNWLTWYQQKPGKAPKLLIYSASTLQSGVPSRFSGSGSGTDFTLTISSLQPEDFATYYCQQANNLRTLTFGGGTKVDIK
notes: as for B1
B5: anti-CD7 scFv-H7 antibody (scFv, V domains shown)
VH: EVQLVESGGGLIQPGGSLRLSCAASGFTVSSNYMSWVRQAPGKGLEWVSVIYSGGSTYYADSVKGRFTISRDNSKNTLYLQMNSLRAEDTAVYYCATDYGELHDAFDIWGQGTTVTVSS
VL: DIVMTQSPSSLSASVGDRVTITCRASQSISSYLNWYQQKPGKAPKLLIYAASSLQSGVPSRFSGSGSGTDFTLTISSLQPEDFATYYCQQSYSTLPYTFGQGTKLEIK
notes: Fully human scFv from the phage library; also called anti-CD7 CAR-H7
B6: anti-CD7 scFv-H9 antibody (scFv, V domains shown)
VH: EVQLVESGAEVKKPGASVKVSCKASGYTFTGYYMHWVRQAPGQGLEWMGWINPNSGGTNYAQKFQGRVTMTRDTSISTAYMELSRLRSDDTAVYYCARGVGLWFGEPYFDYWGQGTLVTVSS
VL: QSVLTQPPSASGAPGERVTISCSGSSSNIGSNYVYWYQQLPGTAPKLLIYNSNQRPSGVPDRFSGSKSGASASLAISGLRSEDEADYYCAAWDDSLSGPVFGGGTKVTVL
notes: Fully human scFv from the phage library; also called anti-CD7 CAR-H9
B7: anti-CD7 scFv-H4 antibody (scFv, V domains shown)
VH: QVQLVQSGGGLVQPGGSLRLSCAASGFTFSTYWMSWVRQAPGKGLEWVANINQDGTEKYYVDSVKGRFTISRDNAKNSLYLQMNSLRAEDTAVYYCAREPGIALDYWGQGTLVTVSS
VL: QSVVTQPPSVSAAPGQKVTISCSGSSSNIGNNYVSWYQQLPGTAPKLLIYDNNKRPSGIPDRFSGSKSGTSATLGITGLQTGDEADYYCGTWDSSLSAGDWVFGGGTKLTVL
notes: as for B1
B8: anti-CD7 scFv-H10 antibody (scFv, V domains shown)
VH: QLQLQESGGGLVQPGGSLRLSCAASGFTFSSYAMSWVRQAPGKGLEWVSAISGSGGSTYYADSVKGRFTISRDNSKNTLYLQMNSLRAEDTAVYYCAKGYSGYPAVLDYWGQGTLVTVSS
VL: QSALTQPASVSGSPGQSITISCTGTSSDVGGSKYVSWYQQHPGKAPKLMIYDVSYRPSGVSDRFSGSKSGNTASLTISGLQAEDEADYYCSSYTSNSNLPLFGGGTKVTVL
notes: Fully human scFv from the phage library; also called anti-CD7 CAR-H10
B9: anti-CD7 scFv-H6 antibody (scFv, V domains shown)
VH: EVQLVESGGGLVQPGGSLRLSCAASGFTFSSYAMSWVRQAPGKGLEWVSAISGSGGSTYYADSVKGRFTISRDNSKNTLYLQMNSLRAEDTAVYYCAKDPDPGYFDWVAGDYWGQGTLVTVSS
VL: QSALTQPPSASGSPGQSVTISCTGTSSDVGGYNYVSWYQQHPGKAPKLMIYEVRKRPSGVPDRFSGSKSGNTASLTVSGLQADDEADYYCSSYAGSNNLGFGGGTKLTVL
notes: as for B1
B10: anti-CD7 scFv-H8 antibody (scFv, V domains shown)
VH: QVQLQESGAGLLKPSETLSLTCAVYGGSISGYYWSWIRQPPGKGLEWIGEINHSGSTNYNPSLKSRVTISVDTSKNQFSLKLSSVTAADTAVYYCARGGGSSGYYLDYWGQGALVTVSS
VL: QSVLTQPPSVSEAPRQRVTISCSGSSSNIGNNAVNWYQQLPGKAPKLLIYYDDLLPSGVSDRFSGSKSGTSASLTISGLQSEDGADYYCASWDDSLNGRVFGGGTKLTVL
notes: as for B1
B11: anti-CD7 scFv-H12 antibody (scFv, V domains shown)
VH: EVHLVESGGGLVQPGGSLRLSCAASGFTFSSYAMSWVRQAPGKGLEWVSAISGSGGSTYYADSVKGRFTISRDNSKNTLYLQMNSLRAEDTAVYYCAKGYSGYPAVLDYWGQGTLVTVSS
VL: QPVLTQPPSASGTPGQRVIISCSGSGSNIGSNTVTWYRQFPGAAPKTLIYNSKLRPSWVPDRFTASKSGTSASLAISGLQSEDEADYYCAAWDDSLNGVVFGGGTKLTVL
notes: as for B1

target: T1, CD7-Fc recombinant protein; test: flow cytometry, CAR-T cells stained with CD7-Fc protein (FIG. 4)

Q: Does B1 bind?
A: Result: binds

Q: Does B2 bind?
A: Result: binds

Q: Does B3 bind?
A: Result: binds

target: T1, CD7-Fc recombinant protein; test: flow cytometry, CAR-T cells stained with CD7-Fc protein

Q: Does B4 bind?
A: Result: binds

Q: Does B5 bind?
A: Result: binds

Q: Does B6 bind?
A: Result: binds

Q: Does B7 bind?
A: Result: binds

Q: Does B8 bind?
A: Result: binds

Q: Does B9 bind?
A: Result: binds

Q: Does B10 bind?
A: Result: binds

Q: Does B11 bind?
A: Result: binds
